We go through 3 molecules from patent US7727972B2, “Methods for determining absorption of cobalamin or analogues thereof” (DrugTech Corporation, priority 2004, dated 2010).

Assay [1] addresses T1, TC-bound 57Co cobalamin (cyanocobalamin-transcobalamin complex) (Homo sapiens, UniProt P20062).
T1 construct: from tissue; host or cells: human donor serum
T1 sequence (P20062 19-427): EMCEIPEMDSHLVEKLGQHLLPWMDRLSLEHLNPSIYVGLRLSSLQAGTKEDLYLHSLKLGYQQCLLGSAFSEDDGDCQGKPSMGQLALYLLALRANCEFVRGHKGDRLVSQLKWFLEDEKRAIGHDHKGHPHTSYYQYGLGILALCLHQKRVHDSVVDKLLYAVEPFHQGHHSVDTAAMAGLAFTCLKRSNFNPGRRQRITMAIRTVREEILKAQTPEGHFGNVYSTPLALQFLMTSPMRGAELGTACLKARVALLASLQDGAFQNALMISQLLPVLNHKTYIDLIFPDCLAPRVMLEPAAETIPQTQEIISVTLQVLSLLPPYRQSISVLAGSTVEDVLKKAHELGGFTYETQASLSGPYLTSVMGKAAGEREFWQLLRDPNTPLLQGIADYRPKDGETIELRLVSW
Description: Release of 57Co cyanocobalamin from transcobalamin using proteases. The class given is biochemical. The conditions noted are these: 50 U protease, human donor serum, TC captured on antibody-coated magnetic microspheres; 15 min (chymotrypsin 45 min); FIG. 1. The procedure:
25 μl tracer solution and 2.5 μl cyanocobalamin solution were added to 400 μl human donor serum. Tris-HCl 0.1 M pH 7.4 was run as a control. After addition of 50 μl capturing reagent, the samples were incubated on a coulter mixer for 1 hour at room temperature. The samples were placed in a magnetic rack for 3 minutes for separation of the capturing reagent. Subsequently, the rack was inverted and incubated for another 3 minutes. The supernatant was discarded and 500 μl of washing buffer was added. The samples were vortexed and placed in the magnetic rack for 3 minutes. Subsequently, the rack was inverted again and the samples were incubated for another 3 minutes. After separation, the washing buffer was discarded and 50 U of subtilisin Carlsberg, in 200 μl Tris-HCl 0.1 M pH 7.4 5 mM Ca^2+, was added. After incubation for 15 minutes at 50° C. in a shaking water bath, the samples were put on a magnetic rack for 3 minutes for separation of the capturing reagent. The rack was inverted and incubated for another 3 minutes. The supernatant was discarded and the pellet was counted for 5 minutes on a gamma counter.
Similar experiments were performed with proteinase K (50 U) in Tris-HCl 0.1 M pH 7.4 5 mM Ca^2+ incubated at 37° C., thermolysin (50 U) in Tris-HCl 0.1 M pH 7.4 5 mM Ca^2+ 5 mM Zn^2+, and chymotrypsin (50 U) in Tris-HCl 0.1 M pH 7.4 incubated for 45 min. at 37° C. […]

Assay [2] deals with Anti haptocorrin antibodies (ELISA). Briefly: Cross-reactivity of the haptocorrin ELISA towards other cobalamin binding proteins. Further details: species or system rabbit. The conditions noted are these: 100 nmol/L in the assay mixture. Here is the method:
Antibodies. Anti haptocorrin was produced by DakoCytomation A/S, Denmark by immunising rabbits with 200 μg pure haptocorrin produced as previously described (12) and deglycosylated as described above. The gamma globulin fraction was pre-pared (13) from serum obtained after 7 immunisations.
ELISA. The principle of the ELISA assay used was an immobilised capture antibody (0.1 ug gamma globulin/well, rabbit nr F7773) catching the analyte and a biotinylated detection antibody (gamma globulin 3 ug/L, rabbit nr 7772) visualised by avidin/Horse Radish Peroxidase (HRP). Colour development by addition of 3,3′,5,5′-tetramethyl-benzidin was proportional to the concentration of analyte. The assay procedure was as previously described for transcobalamin (14, 15). In brief, calibrator, sample or control (100 μL, final dilution 1:30) was incubated for 1 hour at room temperature prior to washing and incubation for 30 min with the biotinylated detection antibody. The attached biotinylated antibody was detected employing avidin/HRP and colour development was determined by measuring the absorbance at 420 nm and correcting for the absorbance at 620 nm. The calibrator employed was deglycosylated pure human haptocorrin. All samples were run in true duplicates, where deglycosylation was performed on two independent samples.
Samples. […]
Background: In an ELISA, binding on a coated surface is turned into a signal by an enzyme label.

B1: subtilisin Carlsberg: subtilisin Carlsberg from Bacillus licheniformis (EC 3.4.21.62) (Sigma Aldrich) (protein, UniProt P00780 106-379, looked up)
Subtilisin Carlsberg: AQTVPYGIPLIKADKVQAQGFKGANVKVAVLDTGIQASHPDLNVVGGASFVAGEAYNTDGNGHGTHVAGTVAALDNTTGVLGVAPSVSLYAVKVLNSSGSGSYSGIVSGIEWATTNGMDVINMSLGGASGSTAMKQAVDNAYAKGVVVVAAAGNSGSSGNTNTIGYPAKYDSVIAVGAVDSNSNRASFSSVGAELEVMAPGAGVYSTYPTNTYATLNGTSMASPHVAGAAALILSKHPNLSASQVRNRLSSTATYLGSSFYYGKGLINVEAAAQ
In the case of B1, the “release of cyanocobalamin from its complex with transcobalamin (counts remaining in the sample)” value in assay [1] is recorded as “most effective”.

B2: transcobalamin: cobalamin binding protein; pure TC dissolved in phosphate buffer 0.1 M containing albumin 0.1% (protein, UniProt P20062 19-427, looked up)
Transcobalamin-2: EMCEIPEMDSHLVEKLGQHLLPWMDRLSLEHLNPSIYVGLRLSSLQAGTKEDLYLHSLKLGYQQCLLGSAFSEDDGDCQGKPSMGQLALYLLALRANCEFVRGHKGDRLVSQLKWFLEDEKRAIGHDHKGHPHTSYYQYGLGILALCLHQKRVHDSVVDKLLYAVEPFHQGHHSVDTAAMAGLAFTCLKRSNFNPGRRQRITMAIRTVREEILKAQTPEGHFGNVYSTPLALQFLMTSPMRGAELGTACLKARVALLASLQDGAFQNALMISQLLPVLNHKTYIDLIFPDCLAPRVMLEPAAETIPQTQEIISVTLQVLSLLPPYRQSISVLAGSTVEDVLKKAHELGGFTYETQASLSGPYLTSVMGKAAGEREFWQLLRDPNTPLLQGIADYRPKDGETIELRLVSW
In the case of B2, in assay [2], the “cross-reactivity in haptocorrin ELISA” value is recorded as “No cross-reactivity”.

B3: Proteinase K: proteinase K from Tritrachium album (EC 3.4.21.64) (Sigma Aldrich) (protein, UniProt P06873 106-384, looked up)
Proteinase K: AAQTNAPWGLARISSTSPGTSTYYYDESAGQGSCVYVIDTGIEASHPEFEGRAQMVKTYYYSSRDGNGHGTHCAGTVGSRTYGVAKKTQLFGVKVLDDNGSGQYSTIIAGMDFVASDKNNRNCPKGVVASLSLGGGYSSSVNSAAARLQSSGVMVAVAAGNNNADARNYSPASEPSVCTVGASDRYDRRSSFSNYGSVLDIFGPGTSILSTWIGGSTRSISGTSMATPHVAGLAAYLMTLGKTTAASACRYIADTANKGDLSNIPFGTVNLLAYNNYQA
Take B3: in assay [1], the “release of cyanocobalamin from its complex with transcobalamin (counts remaining in the sample)” value is reported as “most effective”.
